Molecular target: GST F52(pBPa)
Test: cross-linking; photocrosslinking through pBPa in whole N. meningitidis cells, UV light for the indicated times up to 2 hours; bacterial extracts on Western blot with anti-GST mAb

Sequence of GST F52(pBPa) (P08515 2-218): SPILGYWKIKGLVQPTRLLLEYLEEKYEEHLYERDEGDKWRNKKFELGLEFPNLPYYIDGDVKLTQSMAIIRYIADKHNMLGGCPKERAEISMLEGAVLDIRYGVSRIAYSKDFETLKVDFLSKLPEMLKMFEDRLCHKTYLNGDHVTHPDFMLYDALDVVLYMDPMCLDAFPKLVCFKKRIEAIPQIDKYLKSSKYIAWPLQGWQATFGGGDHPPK

GST F52(pBPa) (enzyme) showed a stoichiometry N of 2.

From paper PMC7458321
